{"source": "the nanobody polyreactivity screen of Harvey et al. (2022)", "data": [{"test": "yeast display, Sf9 membrane polyspecificity reagent, FACS + sequencing; frameworks hold sequencing errors", "procedure,_shortened": "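A nanobody's polyreactivity label depends on the gate it was sorted from. Yeast display cells were stained with 10% biotinylated, detergent-solubilized Sf9 membrane reagent for 1 hour at 4 °C, enriched on streptavidin microbeads and sorted by FACS. The low and high (top ~1%) gates were set on anti-HA fluorescence for expression and streptavidin fluorescence for reagent binding.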", "values": [{"sequence": "QVQLVDSGGGLVQAGGSLRLSCAASGSTFRLYAMGWYRQAPGKERELVAAISQRGGSTYYADSVKGRFTISRDNAKNTVYLQKNSLKPEDTAVYYCNTDWYRKWGKPYYYWGQGTQVTVSS", "polyreactivity (PSR sort gate)": "high polyreactivity"}, {"sequence": "QVQLVDSGGGLVQAGGSLRLSCAASGSTFVPNAMGWYRQAPGKERELVASITSDGGTYYADSVKGRFTISRDNAKNTVYLQMNSLKPEDTAVYYCAADDNGVWVISYWWFDYWGQGTQVTVSS", "polyreactivity (PSR sort gate)": "high polyreactivity"}, {"sequence": "QVQLVDSGGGLVQAGGSLRLSCAASGSTLGENAMGWYRQAPGKERELVSAIRQSSGRTYYADSVKGRFTISRDNAKNTVYLQMNSLKPEDTAVYYCANYYWGQGTQVTVST", "polyreactivity (PSR sort gate)": "low polyreactivity"}, {"sequence": "QVQLVDSGGGLVQAGGSLRLSCAASGYIFGDYVMGWYRQAPGKERELVASISSSGDTNYADSVKGRFTISRDNAMNTVYLQMNSLKPEDTAVYYCAAVDWIGRVHGKPWGGDYWGQGTQVTVSS", "polyreactivity (PSR sort gate)": "low polyreactivity"}, {"sequence": "QVQLVDSGGGLVQAGGSLRLSCAASGYTILSYVMGWNRQAPGKERELVAAIRRSGGSTYYADSVKGRFTISRDNAKNTVYLQMNSLKPEDTAVYYCNAPHHRYDWGQGTQVTVSS", "polyreactivity (PSR sort gate)": "high polyreactivity"}, {"sequence": "QVQLVDSGGGLVQAGGSLRLSCAPSGSTFGYNAMGWYRQAPGKERELVAAITWSGGSTYYADSVKGRFTISRDNAKNTVYLQMNSLKPEDTAVYYCAADDWYNSKWHYYSWGQGTQLTVSS", "polyreactivity (PSR sort gate)": "low polyreactivity"}, {"sequence": "QVQLVDSGGGLVQAGGSLRLSCASSGRIFSEYAMGWYRQAPGKERELVAAISRRGGRTYYADSVKGRFTISRDNAKNTVYLQMNSLKPEDTAVYYCAADHGDPGGYDYWGQGTQVTVSS", "polyreactivity (PSR sort gate)": "high polyreactivity"}, {"sequence": "QVQLVDSGGGLVQAGGSLRLSCASSGRIFTKYSMGLYRQAPGKERELVAGISGSGTITYYADSVKGRFTISRDNAKNTVYLQMNSLKPVDSAVYYCNAGRVTNRTPRYDYWGQGTQVSVSS", "polyreactivity (PSR sort gate)": "high polyreactivity"}, {"sequence": "QVQLVDSGGGLVQAGGSLRLSCDASGLIFRYYTMGWYRQAPGKERELVATITKSGSSTYYADSVKGRFTISRDNAKNTVYLQMNSLKPEDTAVYYCAARAYPSSPRGVYAYYYWGQGTQVTVSS", "polyreactivity (PSR sort gate)": "high polyreactivity"}, {"sequence": "QVQLVDSGGGLVQAGGSLRLSCDASGSIFYPYALGCYIQAPGKERELVAAITTSGGSTYYADSVKGRFTISRDNAKNTVYLQMNSLKPEATAVYYCSASYYSDIWPYSVYDLEFYWGQGTQVTVSS", "polyreactivity (PSR sort gate)": "high polyreactivity"}, {"sequence": "QVQLVDSGGGLVQAGGSLRLSCPASGFTFVIYAMGWYRQEPGKESELVAAIRSGGRTYYADSVKGRFTISRDNAKNTVYLQMNSLKPEDTAVYYCAAVPDLKWFGYEYWGQGTQVTVSS", "polyreactivity (PSR sort gate)": "high polyreactivity"}, {"sequence": "QVQLVDSGGGLVQAGGSLRLSCPASGIIIARNTMGWYRQAPGKERELVAAISTRGTTTYYADSVKGRFTISRDNAKNTVYLQMNSLKPEDTAVYSCAAFRVHTDRYNYWGQGTQVTVSS", "polyreactivity (PSR sort gate)": "high polyreactivity"}, {"sequence": "QVQLVDSGGGLVQAGGSLRLSCPASGRIFSWYAMGWYRQAPGKERELVATISSTGGSTYYADSVKGRFTISRDNAKNTVYLQMNSLKAEHTAVYYCNAVVYGIFLYAWYDYWGQGTQVTVSS", "polyreactivity (PSR sort gate)": "low polyreactivity"}, {"sequence": "QVQLVDSGGGLVQAGGSLRLSCPASGSTIAWYDMGWYRQEPGKEREFVAAIDYGGGSTYADSVKGRFTISRDNAKNTVYLQMNSLKPDDTAVYYCNADYWVYLYDYWGQGTLVTVSS", "polyreactivity (PSR sort gate)": "low polyreactivity"}, {"sequence": "QVQLVDSGGGLVQAGGSLRLSCSASGYTFALYSMGWYRQAPGKERELVADINIGGASTYYADSVKGRFTISRDNAKNTVYLQMNSLKPEDTAVYYCAKEYYDGYFPTFDYDYWGQGTQVTVSS", "polyreactivity (PSR sort gate)": "low polyreactivity"}, {"sequence": "QVQLVDSGGGLVQAGGSLSLSCADSGFIFRAYEMGSYRQAPGNERALVAAISGSGGRTYYSDSVNGRFTISRDNAKNTVYLQKNSLKPEDTAVYYGKADFHYSIPGHAFATVYYWGQGTQVTVSS", "polyreactivity (PSR sort gate)": "low polyreactivity"}, {"sequence": "QVQLVDSGGGLVQAGGTLRLSCAASGSTFRYYAMGWYRQAPGKERELVAAISWNGGRTYYADSVKGRFTISRDNAKNTVYLQMNSLKPEDSAVYYCDAVHYVAYYGYDFWGQGTQVTVSS", "polyreactivity (PSR sort gate)": "high polyreactivity"}, {"sequence": "QVQLVDSGGGLVQAGVRLRLSCAASGNIFSAYAMGWYRQAPGKERELVASIDWNGGRTYYADSVKGRFTISRDNAKNTVYLQMNSLKPEDTAVYYCNAGYSYRKYDYLGQGTQVTVSS", "polyreactivity (PSR sort gate)": "high polyreactivity"}, {"sequence": "QVQLVDSGGGLVQAGVSLRISCAASGSTFYANAMGWYRQAPGKERELVATITSSGTSTYYGDSVKGRFTISRDNAKNTFYLQMNSLKPEDIAVYYCAAEYSLLYWEFDYWGQGTQVTVSS", "polyreactivity (PSR sort gate)": "low polyreactivity"}, {"sequence": "QVQLVDSGGGLVQEGGRLRLSCAASGSIYDQYDMGWYRQAPGKERELVAAISNRGGCTYYADSVKGRFTISRDNAKNTVYLQMNSLKPEDTAVYYCAARKYWGYGTRYFYWGQGTQVTVSS", "polyreactivity (PSR sort gate)": "high polyreactivity"}, {"sequence": "QVQLVDSGGGLVQEGGSLRLRCAASGYTFDWYAMGWYRQAPGKERELVAAINSGGGTYYADSVKGRFTISRDNAKNSVYLQMNSLKPEDTAVYYCAKYTYDYWGQGTQVTVSS", "polyreactivity (PSR sort gate)": "low polyreactivity"}, {"sequence": "QVQLVDSGGGLVQEGGSLRLSCAASGRIFWYYDMGWYRQAPGKERELVAAISQRGGSTYYADSVKGRFTISRDNAKNTVYLQMNSLKPEDTAVYYCAKRNPYWATREYWGQGTQVTVSS", "polyreactivity (PSR sort gate)": "high polyreactivity"}, {"sequence": "QVQLVDSGVGLVQAGGRLRLSCAASGRIFPFNAMGWYRQSPGKERELVAAITSSGGRTYYADSVKGRFTISRDNAKNTVYLQMNSLKPVDTAVYYCAATLVRRARSGPMGYWGQGTQVTVSS", "polyreactivity (PSR sort gate)": "high polyreactivity"}, {"sequence": "QVQLVDSRGGLVQAGGSLRLSCAASGNTFGFNAMGWNRQARGKERHLVAAITWSVGRTYYADSVKRRFTISRDHAKNTVYLEMNSLKPEDTAVYYCAKDFEAGDDYFAYDYWGQGTQVTVSS", "polyreactivity (PSR sort gate)": "low polyreactivity"}, {"sequence": "QVQLVDSRGGLVQAGGSLRLSCAASGSTFVNYAMGWYRQAPGKAWELVAAITANGGRTYYADSVKGRFTISRDNAKNTVYLQMNSLKPEDTAVYYCNTESNLYRRRRNYWGQGTQVTVSS", "polyreactivity (PSR sort gate)": "low polyreactivity"}, {"sequence": "QVQLVDSSGGLVQAGGSLSLSCAASGRTFGFYAMGWYIQAPGSERELVASITWRGGRKYYADSEMGSFTISRDNAKNTCYLQMISLKPEDTAVYYCAAAYHPYQGVTGHDGGYDYWGQGTQVTVSS", "polyreactivity (PSR sort gate)": "low polyreactivity"}, {"sequence": "QVQLVDSVGGLVQAGGSLSLSCAASGLIFASNAMGWYRQAPGKERELLATIRRGTSTNYADSVKGRFTISRDNAKNTVYLEMNSLKPEDTAVYYCAADGYTYKFDYWGQGTQVTVSS", "polyreactivity (PSR sort gate)": "low polyreactivity"}, {"sequence": "QVQLVDSWGGLVQAGGSLRLSCAASGRTSRYAMGWYRQAPGKERELVAAITSSGGRTYYADSVKGRFTISRDNAKNTVYLQMNSLKPEDTAVYYCAAGYLLWRTWDYAAGHNYWGQGTQVTVSS", "polyreactivity (PSR sort gate)": "high polyreactivity"}, {"sequence": "QVQLVDTGGGLVQAGGSLRLICAASGLTFSYNAMGWYRQAPGKERELVAAITVSGGRTYYADSVKGRFTISRDNAKNTVYLQMNSLKAEDTAVYYCNADYDEGYYGYLRYDYDYWGQGTQVTVSS", "polyreactivity (PSR sort gate)": "high polyreactivity"}, {"sequence": "QVQLVDTGGGLVQAGGSLRLSCAASGFTFRWYAMGWYRQAPGKERELVAAISWRGGSTYYADSVKGRFTISRDNAKTTVYLQMNSLKPEDTAVYYCAALRYWISLSSYEYWGQGTQVTVSS", "polyreactivity (PSR sort gate)": "high polyreactivity"}, {"sequence": "QVQLVDTGGGLVQAGGSLRLSCAASGSIFHNNSRGWYRQATGKERELVAAIRRSGGSTSYADSVKGRFTISLDNAKNTVYLQMNSLKPEDTAVYYCNKRFVRFSPEYGYWGQGNQVTVSS", "polyreactivity (PSR sort gate)": "low polyreactivity"}, {"sequence": "QVQLVDTGGGLVQAGGSLRLSCSASGSIFEGYAMGWYRKAPGKERELVARITSDDDSTYYADSVKGRFTISRDKEKNTVYLQMNSLKAEDTAVYYCNADYYWTSLAMDSWGQGTQVTVSS", "polyreactivity (PSR sort gate)": "low polyreactivity"}, {"sequence": "QVQLVEAGGGLVKAGGSLRLSCAASGYIFRFYALGWYRQAPGKERELVAAISRSGSRTYYADSVKGRFTISRDNAKNTVYLQMNSLKPEDTAVYYCAAVTRGLRFDYWGQGTQVTVSS", "polyreactivity (PSR sort gate)": "high polyreactivity"}, {"sequence": "QVQLVEAGGGLVQAGGSLRLCCAASGSTFVHYAMGWYRQAPGKERELVAAITTSGTGTFYADSVKGRFTISRENAKNNVYLQMNSLKPEETAVNYCAADIYPVWIYLLYVYWGQGTQVTVSS", "polyreactivity (PSR sort gate)": "low polyreactivity"}, {"sequence": "QVQLVEAGGGLVQAGGSLRLSCAACGSIFISYAMGWYRQAPGKERELVAAISSGGSTNYADSVKGRFTISRDNAKNTVYLQMNSLTPEDTAVYYCAADGWLWSFTGDGWWFDYWGQGTQVTVSS", "polyreactivity (PSR sort gate)": "low polyreactivity"}, {"sequence": "QVQLVEAGGGLVQAGGSLRLSCAASGITYSKYANGWYIQAPWKERELVAAISQRGGSTYYADSVKGRFTISRDNAKNTVYLQMNSLKPEDTAVYYCNAEFYWSIIAYEYWGQGTQVTVSS", "polyreactivity (PSR sort gate)": "high polyreactivity"}, {"sequence": "QVQLVEAGGGLVQAGGSLRLSCAASGLIFWAYAMGWYRQAPGKERELVAAINWRGGSTYYADSVKGRFTISRDNAKNTVDLQMNSLKPEDTAVYYCADDSYYDEYDYLGQGTQVTVSS", "polyreactivity (PSR sort gate)": "low polyreactivity"}, {"sequence": "QVQLVEAGGGLVQAGGSLRLSCAASGRIFGRYVMGWYRQAPGKERELVASISTRRGRTYYADSVKGRFTSSRDNAKNTVYLQMNSLKPEDTAVYYCATAYSSHYGIHRRYEYWGQGTQVTVSS", "polyreactivity (PSR sort gate)": "high polyreactivity"}, {"sequence": "QVQLVEAGGGLVQAGGSLRLSCAASGRTFRWYAMGWYRQAPGKERELVAAITIGGASTYYADSVKGRFTISRDNAKNTVYLQMNSLQPEYTAVNYCNAVFVGNDYWGQGTLVTVSS", "polyreactivity (PSR sort gate)": "low polyreactivity"}, {"sequence": "QVQLVEAGGGLVQAGGSLRLSCAASGSIFGSYAMGWYRQAPGKERELVAAISGSGGRTYYADSVKGRFTISRDNAKISVYLQMNSLKPDDTAVYYCAAAYPRVTYNYGYYWGQGTQVTVSS", "polyreactivity (PSR sort gate)": "high polyreactivity"}, {"sequence": "QVQLVEAGGGLVQAGGSLRLSCAASGSIFKSYAMGRYRQAPGKEREFVASITKSGGTTYYADSVKGRFTISRDHAKNTVYLQMNSLKPEDTAVYYCAADWYRSSWTYNYLGQGTQVTVSS", "polyreactivity (PSR sort gate)": "low polyreactivity"}, {"sequence": "QVQLVEAGGGLVQAGGSLRLSCAASGSTFRRYAMGWYRQAPGKERVLVAAITTRGGSTYYADSVKGRFTISRDNAKNTVYLQMNSLKPEDTAVYYCARDYSTYLRTAGDYWGQGTQVTVSS", "polyreactivity (PSR sort gate)": "low polyreactivity"}, {"sequence": "QVQLVEAGGGLVQAGGSLRLSCGASGFTFVYYAMGWYRQAPGKERELVAAISRSGGSTYYADSVKGRFTISRDNAKNTVYVQMNSLKPEDTAVYYCAARKNYGSRLSYEYWGQGTQVTVSS", "polyreactivity (PSR sort gate)": "high polyreactivity"}]}]}
